Paper PMC8163506, “A novel ATP dependent dimethylsulfoniopropionate lyase in bacteria that releases dimethyl sulfide and acryloyl-CoA” (eLife, 2021)

Target: DddX (ATP-dependent DMSP lyase) of Psychrobacter sp. D2, recombinant (Psychrobacter sp. D2)
Test: SEC; gel filtration of purified DddX against molecular mass standards (semilog plot of mass versus Kav)

- stoichiometry N: 2
Substance: DddX (ATP-dependent DMSP lyase) of Psychrobacter sp. D2, recombinant (enzyme)
